Here are results for two molecules from patent US20140120555A1 (PIERRE FABRE MEDICAMENT, published 2014).

In test [1] the target is T1, Recombinant human FcγRIIIA variant V [CD16a], Gln17-Gln208 with C-terminal 6-His tag (human, UniProt P08637 17-208).
T1 construct: range 17-208; 'variant V' is given without a position, so no substitution is written; also called h-FcγRIIIA
The test can be described thus: SPR (Biacore X): h-FcγRIIIA injected over c515H7 Mab immobilized on a CM4 sensorchip; heterogeneous ligand model, major component (81%). The procedure:
(§1) 2017 RU of c515H7 Mab were immobilized using the amine coupling kit chemistry on the second flowcell (FC2) of a CM4 sensorchip. The first flowcell (FC1) activated by NHS and EDC mixture and des-activated by ethanolamine served as the reference surface to check and subtract the non specific interaction between the analyte (Fc gamma receptors) and the sensorchip matrix.
(§2) The kinetic experiments were carried out at 25° Celsius at a flow rate of 30 μl/min. The HBS-EP buffer was used either as the running buffer or for the preparation of analyte solutions. The analyte solutions were injected during 90 seconds (association phase) with a 90 seconds delay (dissociation phase). An injection of running buffer as analyte was used as a double reference. All the sensorgrams were corrected by this double reference sensorgram.
(§3) After each injection of the analyte, the sensorchip was regenerated by injection of 20 mM NaOH, 75 mM NaCl solution.
(Surface plasmon resonance follows binding to a sensor surface in real time, without labels.)

The target of test [2] is T1, Recombinant human FcγRIIIA variant V …. The test can be described thus: SPR (Biacore X): h-FcγRIIIA injected over c515H7 Mab immobilized on a CM4 sensorchip; heterogeneous ligand model, minor component (19%). As to the method: as §1, §2, §3
Test [3] has as its target T2, Recombinant human FcγRI [CD64], Gln16-Pro288 with C-terminal 6-His tag (human, UniProt P12314 16-288).
T2 construct: range 16-288; Soluble form bought from R&D Systems; also called h-FcγRI
The test can be described thus: SPR (Biacore X): h-FcγRI injected over c515H7 Mab immobilized on a CM4 sensorchip; Langmuir model. As to the method: as §1, §2, §3

Test [4] concerns the target T3, Recombinant mouse FcγRIII [CD16], Ala31-Thr215 with C-terminal 10-His tag (mouse, UniProt P08508 31-215).
T3 construct: Soluble form bought from R&D Systems; also called m-FcγRIII
T3 sequence: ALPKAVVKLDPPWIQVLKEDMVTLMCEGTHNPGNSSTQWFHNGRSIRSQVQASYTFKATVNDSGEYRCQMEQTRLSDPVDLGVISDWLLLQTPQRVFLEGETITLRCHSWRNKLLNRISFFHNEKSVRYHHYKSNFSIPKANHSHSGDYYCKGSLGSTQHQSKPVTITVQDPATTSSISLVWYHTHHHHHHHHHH
The test can be described thus: SPR (Biacore X): m-FcγRIII injected over c515H7 Mab immobilized on a CM4 sensorchip; heterogeneous ligand model, major component (99%). The procedure: as §1, §2, §3

In test [5] the target is T1, Recombinant human FcγRIIIA variant V …. The test can be described thus: SPR (Biacore X): h-FcγRIIIA injected over hz515H7VH1D76NVL2 Mab immobilized on a CM4 sensorchip; Langmuir model. As to the method:
(§4) 1964 RU of hz515H7VH1D76NVL2 Mab were immobilized using the amine coupling kit chemistry on the second flowcell (FC2) of a CM4 sensorchip. The first flowcell (FC1) activated by NHS and EDC mixture and des-activated by ethanolamine served as the reference surface to check and subtract the non specific interaction between the analyte (Fc gamma receptors) and the sensorchip matrix.
as §2
(§5) After each injection of the analyte, the sensorchip was regenerated by injection of either 20 mM NaOH solution after h-FcγRI and m-FcγRIII or 10 mM NaOH after h-FcγRIIIA and m-FcγRI.

In test [6] the target is T4, Recombinant mouse FcγRI [CD64], Gln25-Pro297 with C-terminal 6-His tag (mouse, UniProt P26151 25-297).
T4 construct: range 25-297; Soluble form bought from R&D Systems; also called m-FcγRI
T4 sequence: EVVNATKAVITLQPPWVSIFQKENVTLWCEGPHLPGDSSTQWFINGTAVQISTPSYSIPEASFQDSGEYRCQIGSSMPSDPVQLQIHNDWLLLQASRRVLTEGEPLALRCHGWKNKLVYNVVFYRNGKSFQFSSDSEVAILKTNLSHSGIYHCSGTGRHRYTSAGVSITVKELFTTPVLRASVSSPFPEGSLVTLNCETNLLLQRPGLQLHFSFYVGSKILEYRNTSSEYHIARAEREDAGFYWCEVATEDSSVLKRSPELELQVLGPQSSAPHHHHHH
The test can be described thus: SPR (Biacore X), Mab on CM4 chip, m-FcγRI as analyte, heterogeneous ligand model, major component. The procedure: as §4, §2
According to this model, the hz515H7VH1D76NVL2 Mab Fc domain may be regarded as a mixture of two components.

The target of test [7] is T3, Recombinant mouse FcγRIII [CD16], …. The test can be described thus: SPR (Biacore X): m-FcγRIII injected over hz515H7VH1D76NVL2 Mab immobilized on a CM4 sensorchip; heterogeneous ligand model, minor component (34%).
The target in test [8] is T4, Recombinant mouse FcγRI [CD64], …. The test can be described thus: SPR (Biacore X): m-FcγRI injected over hz515H7VH1D76NVL2 Mab immobilized on a CM4 sensorchip; heterogeneous ligand model, major component (82%). As to the method: as §4, §2, §5

By Kd is commonly meant the equilibrium constant for the complex coming apart. The koff is the first-order rate constant of dissociation. Usually kon stands for the second-order rate constant of association.

T2 sequence (P12314 other isoform, or with tags, fused parts or gaps limits assumed): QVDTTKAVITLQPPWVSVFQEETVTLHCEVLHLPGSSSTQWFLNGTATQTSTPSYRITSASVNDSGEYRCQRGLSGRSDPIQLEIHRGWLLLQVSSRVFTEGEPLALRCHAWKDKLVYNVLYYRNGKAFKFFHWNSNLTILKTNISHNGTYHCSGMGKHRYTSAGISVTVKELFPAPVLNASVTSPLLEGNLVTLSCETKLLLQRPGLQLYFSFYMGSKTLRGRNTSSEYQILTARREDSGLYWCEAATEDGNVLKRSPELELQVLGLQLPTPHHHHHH
T1 sequence (P08637 other isoform, or with tags, fused parts or gaps mutant limits assumed, form in doubt): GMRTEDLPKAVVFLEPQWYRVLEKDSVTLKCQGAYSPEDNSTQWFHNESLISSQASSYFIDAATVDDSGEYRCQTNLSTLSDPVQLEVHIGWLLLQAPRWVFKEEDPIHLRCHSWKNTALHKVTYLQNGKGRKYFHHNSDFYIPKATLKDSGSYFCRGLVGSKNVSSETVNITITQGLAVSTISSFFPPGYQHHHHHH

B1: chimeric antibody c515H7 (antibody, human IgG1, kappa)
heavy: not shown
light: DIVMSQSPSSLAVSAGEKVTMSCKSSQSLFNSRTRKNYLAWYQQKPGQSPKLLIYWASARDSGVPARFTGSGSETYFTLTISRVQAEDLAVYYCMQSFNLRTFGGGTKLEIKRTVAAPSVFIFPPSDEQLKSGTASVVCLLNNFYPREAKVQWKVDNALQSGNSQESVTEQDSKDSTYSLSSTLTLSKADYEKHKVYACEVTHQGLSSPVTKSFNRGEC
notes: Human IgG1/kappa constant domains; also called c515H7 Mab; chimeric 515H7
For the molecule B1, the Kd was determined as 395 nM in test [1], 34.7 nM in test [2], 1.22 nM in test [3] and 20.9 nM in test [4]. Besides, the koff was found to be 0.185 s⁻¹ in test [1], 0.0124 s⁻¹ in test [2], 0.000599 s⁻¹ in test [3] and 0.00446 s⁻¹ in test [4]. In addition, the kon in test [1] stood at 468000 M⁻¹ s⁻¹; in test [2], 357000 M⁻¹ s⁻¹; in test [3], 493000 M⁻¹ s⁻¹; in test [4], 213000 M⁻¹ s⁻¹.

B2: humanized antibody Hz515H7 VH1 D76N VL2 (antibody, human IgG1, kappa)
heavy: not shown
light: DIVMTQSPSSLAVSLGERATMSCKSSQSLFNSRTRKNYLAWYQQKPGQSPKLLIYWASARDSGVPARFTGSGSETYFTLTISRVQAEDLAVYYCMQSFNLRTFGQGTKVEIKRTVAAPSVFIFPPSDEQLKSGTASVVCLLNNFYPREAKVQWKVDNALQSGNSQESVTEQDSKDSTYSLSSTLTLSKADYEKHKVYACEVTHQGLSSPVTKSFNRGEC
notes: IgG1/kappa; also called hz515H7VL2; hz515H7-1
Regarding B2, the Kd was 75.2 nM in test [5], 75 to 80 nM in test [6], 61.4 nM in test [7] and 76.8 nM in test [8]. For the same molecule, the figures for the koff in test [5], in test [7] and in test [8] were 0.0351 s⁻¹, 0.0299 s⁻¹ and 0.106 s⁻¹, respectively. In addition, the kon in test [5] came out at 467000 M⁻¹ s⁻¹; in test [7], 487000 M⁻¹ s⁻¹; in test [8] it was 1.38e+06 M⁻¹ s⁻¹.
